Source: PMC4786802, “Structure-Based Virtual Ligand Screening on the XRCC4/DNA Ligase IV Interface” (Scientific Reports, 2016)

Biological target: T1, XRCC4 (residues 1-336) (human, UniProt Q13426 1-336)
T1 construct: XRCC4, human, residues 1-336; The copies value of 2 rests on the introduction's words (one XRCC4 homodimer and one Lig4 monomer in the active complex), not on a measurement made here; also called X4
Test: differential scanning fluorimetry; Lig4 C-ter and XRCC4 equimolar at 5 uM in 20 mM HEPES pH 7.5, 100 mM KCl, 2 mM EDTA, 1 mM DTT, 66 mM NDSB-195, 10% glycerol, 10X SYPRO Orange; heated from 20 to 89 °C
Details: both partners purified

T1 sequence (Q13426 whole entry, the tested form may be a part): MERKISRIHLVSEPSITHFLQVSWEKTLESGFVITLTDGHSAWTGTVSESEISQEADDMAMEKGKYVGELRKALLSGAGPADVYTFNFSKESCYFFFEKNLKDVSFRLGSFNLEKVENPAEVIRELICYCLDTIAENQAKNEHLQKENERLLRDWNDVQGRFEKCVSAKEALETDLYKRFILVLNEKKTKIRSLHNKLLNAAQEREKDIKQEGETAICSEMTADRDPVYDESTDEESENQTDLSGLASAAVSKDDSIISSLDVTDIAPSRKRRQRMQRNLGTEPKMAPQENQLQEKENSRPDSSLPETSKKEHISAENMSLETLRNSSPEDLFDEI

B1: WT Lig4 C-ter domain (654-911) (domain or fragment, human, UniProt P49917 654-911, looked up)
chain: KISNIFEDVEFCVMSGTDSQPKPDLENRIAEFGGYIVQNPGPDTYCVIAGSENIRVKNIILSNKHDVVKPAWLLECFKTKSFVPWQPRFMIHMCPSTKEHFAREYDCYGDSYFIDTDLNQLKEVFSGIKNSNEQTPEEMASLIADLEYRYSWDCSPLSMFRRHTVYLDSYAVINDLSTKNEGTRLAIKALELRFHGAKVVSCLAEGVSHVIIGEDHSRVADFKAFRRTFKRKFKILKESWVTDSIDKCELQEENQYLI
notes: DNA ligase IV (Lig4), human, C-terminal fragment with the two BRCT domains and the clamp domain, residues 654-911; also called Lig4 C-ter fragment; C-ter Lig4 protein; source: Escherichia coli BL21 (DE3), purified (HisTrap HP, HiTrap Q HP)
- binding result: binds
